What was measured:
A549-MGT #1low cells = experiment: Cytokine screening, microplate reader MGT #1 fluorescence; assay type: cell-based, human; settings: cytokine combined with GSK126
Description: Phenotypic screening: Tumor cells were propagated as described above until the screening. Then we seeded 15′000/50 μl/well in 384 well plates (Corning), in Gibco FluoroBrite DMEM medium supplemented with the appropriate growth factors. Cells were dispensed as 50 μl suspension into each well using the SPARK20M Injector system (50 μl injection volume; 100 μl/s injection speed). For non-adherent cells (e.g. GICs), cells were further centrifuge at 1500 rpm for 1 h30 min at 37° C. Bottom reading fluorescence was scanned using a SPARM 20M TECAN plate reader at 37° C. in a 5% CO2-95% air (3% for GICs) in a humidified cassette, with the following settings for mVenus: Monochromator, Ex 505 nm±20 nm, Em 535 nm±7.5 nm, manual gain:198, flashes: 35, Integration time:40 μs. In independent replicas, cell viability was measured with 0.02% AlamarBlue solution in FluoroBrite medium with the following settings: Fluorescence Top reading. Monochromator, Ex 565 nm±10 nm, Em 592 nm±10 nm, manual gain: 88, flashes: 30, Integration time:40 μs.
DMSO-soluble compounds such as GSK126, were robotically aliquoted using a D300e, whereas cytokines were robotically aliquoted to each well using an Andrew pipetting robot (AndrewAlliance), using the following concentrations:
To exploit Ezh2 inhibition and MGT #1 as a framework to clarify the signaling basis of EMT in NSCLC cells, we next performed a cytokine screening in GSK126- and vehicle-treated A549-MGT #1^low cells.

A549 cells [1] = experiment: IncuCyte longitudinal MGT #1 fluorescence; assay type: cell-based, human; settings: GSK126 together with TGFB signaling
Description: IncuCyte: IncuCyte automated longitudinal imaging was performed in 96 wells black walls plates (Greiner). 300,000 cells per plate were seeded to reach optimal confluence at the end of the experiment. GSK126 was aliquoted using a D300e, whereas TGFB1+2 were manually aliquoted to each well. Both were refreshed every second day. The last timepoint was independently verified using a plate reader (BMC Clariostar).
Ezh2 inhibition can support Kras-driven EMT in several mouse and human lung cancer cells^41. In this setting, we tested the use of sLCRs in reflecting cellular and molecular responses to biological and chemical stimuli.

A549 cells [2] = experiment: FACS profile of MGT #1 expression and cell morphology; assay type: cell-based, human
Description: FACS analysis: Analysis was performed with FlowJo_V10.

MDA-231 cells = experiment: FACS of MGT #1 expression in breast cancer cells; assay type: cell-based; settings: short-term treatment
Description: (§1) The MCF7, MDA-231, A549 and H1944, cell lines (kindly provided by the Rene Bernards lab, NKI) were cultured in RPMI medium. All cell lines were supplemented with 10% FBS, and 5% penicillin and streptomycin at 37° C. in a 5% CO2-95% air incubator.
(§2) Tumor subtypes are genetically engraved in breast cancer cells^40. […] To confirm that MGT #1 expression reflects that actual breast cancer subtype identity, we FACS sorted and sub-cloned the top MCF7-MGT #1 and the mid MDA-231-MGT #1 expressing cells. Nevertheless, further propagation of the FACS-sorted populations reestablished pre-sorting homeostasis, with MCF7 expressing lower levels of MGT #1 than MDA-231.

MCF7 cells = experiment: FACS of MGT #1 expression in breast cancer cells; assay type: cell-based
Description: as §1, §2

MES-hGICs and PN-hGICs = experiment: FACS of basal sLCR expression in hGICs; assay type: cell-based, human; settings: growth-factor defined conditions in vitro
Description: FACS sorting: Transduced hGICs were harvested into single cell suspensions and resuspended into cold RHB-A complete and filtered into FACS tubes. Sorting was conducted using BD FACSAria III or Fusion. The appropriate laser-filter combinations were chosen depending on the fluorophores being sorted for. Typically, to remove dead cells, events were first gated on the basis of shape and granularity (FSC-A vs. SSC-A) and doublets were excluded (FSC-A vs. FSC-H). Positive gates were established on PGK-driven and constitutively expressed H2B-CFP as sorting reporter, to sort for populations with low to medium intensity of sLCR-dependent fluorophore expression.
Next, we transduced Proneural (PNGT #1-2) and Mesenchymal (MGT #1-2) sLCRs lentiviral particles into spontaneously immortalized human neural progenitor cells that acquired high copy number of PDGFRA, c-Myc and CDK4. To recapitulate the common PN and MES GBM genetic backgrounds, we further engineered hGICs to be depleted of PTEN and either bear IDH1^R132 and TP53^R273H point mutations or be further depleted of TP53 and NF1, thereby generating PN-hGICs and MES-hGICs, respectively. These cells show DNA methylation profiles similar to GBM patients and acquire subtype-specific gene-expression in vivo and therefore represent two distinct GBM subtypes.

T98G cell line = experiment: sLCR-mCherry reporter expression and reprogramming in a glioma cell line; assay type: cell-based; settings: transient over-expression of SALL3, SOX2 and POU3F2
Description: The T98G and U87MG (kindly provided by the van Tellingen lab, NKI) were propagated in EMEM medium. For the experiments in FIG. 13a, T98G were switched to RHB-A supplemented with EGF (20 ng ml-1), bFGF (20 ng ml-1), heparin (1 μg ml-1) and 5% penicillin and streptomycin and propagated first on standard tissue culture-treated plastic, then in ultra-low binding plastic (CORNING).
The Proneural GBM is thought to represent the common GBM ancestor subtype and also to reflect an oligodendrocytic cell-of-origin^26′^37. […] To test whether a PN sLCR would mirror the Proneural state, we decided to induce reprogramming of a FBS-driven conventional cell line into a PN-GICs using the master TFs underlying the PN identity^38. To this end, we transduced either MGT #1 or PNGT #2 into the T98G cell line, which is characterized by TP53 mutations (https://portals.broadinstitute.org/ccle), which are more likely to be associated with a PN phenotype^16. […] Of note, these set of experiments were conducted with a mCherry fluorescent protein carrying a nuclear localization signaling, thereby excluding that the fluorescent protein intensity (mCherry is brighter than mVenus), localization and stability (mVenus is transmembrane and stabilized) play a major role in the observed phenotypic transitions.

[3] = test system: MES-hGICs-MGT #1dim xenografts; experiment: Orthotopic glioma xenograft, genetic tracing of MGT #1; assay type: in vivo, NSG mice
Description: Tissue dissection and Cell surface staining: Brain tumor dissection was previously described in detail^77. Briefly, the tissue was dissected with a scalpel, digested in Accutase/DNasel (947 μl Accutase, 50 μl DNase I Buffer, 3 μl DNase I) at 37° C. until needed. Filtered through a 120 μm cell strainer first and a 40 μm cell strainer before RBC lysis (NH4Cl, 155 mM; KHCO3, 10 mM; EDTA, pH 7.4, 0.1 mM). After washing in cold PBS, viability and cell count were assessed automatically with 0.4% Trypan Blue staining using a TECAN SPARK20M.
When surface markers were assessed, typically, 200.000 cells/antibody were used in 15 ml Falcons. Staining volume was 50 μl in RHB-A medium with primary antibody (e.g. CD133-APC; Miltenyi), on ice, in the dark, for 30′. […] Depending on whether cells were analyzed or sorted, data acquisition was performed on the BD LSRFortessa or cells were sorted using the BD Aria II or a Astrios Moflo. The appropriate laser-filter combinations were chosen depending on the fluorophores being analyzed. Typically, to remove dead cells, events were first gated on the basis of shape and granularity (FSC-SSC), and we used as viability dyes either AnnexinV or LIVE/DEAD Fixable Aqua Dead Cell Stain Kit (depending on the fluorophores being analyzed). […]
We intracranially transplanted MES-hGICs-MGT #1^dim cells into NSG mice and longitudinally monitored tumor formation. […]

With `CC[C@H](C)n1cc(C)c2c(C(=O)NCc3c(C)cc(C)[nH]c3=O)cc(-c3ccc(N4CCNCC4)nc3)cc21` [GSK126] the “MGT #1 expression, fluorescence output” value (A549-MGT #1low cells) was “modest additive effect”, the “MGT #1 fluorescence, longitudinal measurement” value (A549 cells [1]) was “cooperatively induced” and the “MGT #1 activation by flow cytometry” value (A549 cells [2]; combination of TGFB signaling and GSK126) was “synergistically induce MGT #1 activation”. For the same molecule, the cell morphology change (A549 cells [2]; single treatment) was “did not induce a cellular morphology changes” and the “MGT #1 expression by flow cytometry” value (A549 cells [2]; single treatment, early time point) was “induces molecular transitions to a similar extent”.

B1: TGFB2: EMT inducer (protein, UniProt P61812 303-414, looked up)
Transforming growth factor …: ALDAAYCFRNVQDNCCLRPLYIDFKRDLGWKWIHEPKGYNANFCAGACPYLWSSDTQHSRVLSLYNTINPEASASPCCVSQDLEPLTILYYIGKTPKIEQLSNMIVKSCKCS
B1 was tested, and the “change of basal MGT #1 fluorescence” value (MDA-231 cells) was “did not strongly modify the basal MGT #1 fluorescence” and the “change of basal MGT #1 fluorescence” value (MCF7 cells; short-term treatment) was “did not strongly modify the basal MGT #1 fluorescence”.

B2: MGT #1: subtype-specific sLCR for mesenchymal glioblastoma (MES-GBM) (nucleic acid)
chain: ATATTTATTTTTAGGACCAGAAAGTTAAAGTGAATTGGATTTGATCCATTTTCTGAAAGGCTGGCAAGAATTCTTGACATTGCACAGGAATTTCCATGTCAGCATGTTCTCACATGTATGATCTAATTTAGAGATTATTTTGGGGGGCGGGGGTTGAGGAAATGGCATGACTCAGAGTTTAAAAGCCCCAAATCTTAGCTGTGCCTGTGTAGCTTTACCACATAACCCATTGATAACTTAGTTGTGCAACCATCACCACCATCTGTTTTCAGAACTCTTTTCATTTTGCGAAACTGAAACCCGTTAAGCACTGATTTCCCACTCTCCCTCCTCCCAGCCCATAGCAAACCACCATCCCACCAGCACTTTCATTTCGCAAATGGCAAAACTGAAGCCGATATTGTGGTTGTGACTTATCCCAAAGTAATATACACATAAACCTCTATGGATGAGGAAAAAGACAGAGGGAAACTAAAAATTCAAAAGAACAAATTTGACTCACAGATTTGCTGACTCATAGTTGTGACACTTCCTGGCTCAGGAAGTTGAATTTCATTAAGCCTTTGTGGTTTGGGGCTCTGCTGTGCTTTGACAGCTCTGATCTCCTCCCTTCCGGCTGGGCTGTCTGGGGCGCTCTAAAATGAGTGTTGATTTAATGCACTGCCTTCGCACCCGTGCTGGTGCGTCCCGGGGACAGGGGTGGCTGTGCGGTGCCGCGGCGGCCGGCGGGGCTCCTTCCCCAGCAGGGGTGGGGACGCTGAGTCACGGATCTGTCACCGCTTTGCACCTCTCCGAGCCCTCGGGGGCCAAAGCAAAAGCGAAAGCGA
modifications: sLCR
With B2 the “basal sLCR expression” value (MES-hGICs and PN-hGICs) was “higher basal expression in MES-hGICs compared to PN-hGICs”, the “sLCR reporter expression upon master TFs” value (T98G cell line) was “neutral to MGT #1 expression” and the “distribution of MGT #1 expressing cells in the tumor (immunohistochemical staining)” value ([3]; intracranial transplant, n=10, humane end point) was “well confined within the invasive front”. For the same molecule, the “endogenous mVenus fluorescence by flow cytometry, in vivo vs in vitro” value ([3]; xenograft-derived tumor cells) was “vast majority of the tumor cells switched to a MGT #1^low or dark state” and the “basal MGT #1 expression” value (MCF7 cells; after lentiviral transduction) was “lower MGT #1 expression compared to MDA-231 cells”.
